Data as given in patent publication US20210087291A1 (Hoffmann-La Roche, published 2021).

What was measured:
[1] = molecular target: T1, human FolR3 ECD-AcTev-Fcknob-Avi tag + Fc hole, biotinylated monomeric Fc fusion (human, UniProt P0DOX5 223-449 = IgG part); assay: SPR ProteOn, Fab analyte;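 also: recombinant antigens immobilized, purified Fab two-fold dilutions injected in parallel channels, 200 s association and 600 s dissociation, buffer-only channel as in-line reference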
T1 construct: also called huFolR3; FolR3-Fc
Procedure: (§1) Immobilization of antigens (ligand): Recombinant antigens were diluted with PBST (10 mM phosphate, 150 mM sodium chloride pH 7.4, 0.005% Tween 20) to 10 μg/ml, then injected at 30 μl/minute in vertical orientation.
(§2) Injection of analytes: For ‘one-shot kinetics’ measurements, injection direction was changed to horizontal orientation, two-fold dilution series of purified Fab (varying concentration ranges) were injected simultaneously along separate channels 1-5, with association times of 200 s, and dissociation times of 600 s. Buffer (PBST) was injected along the sixth channel to provide an “in-line” blank for referencing. Association rate constants (kₒₙ) and dissociation rate constants (koff) were calculated using a simple one-to-one Langmuir binding model in ProteOn Manager v3.1 software by simultaneously fitting the association and dissociation sensorgrams. The equilibrium dissociation constant (KD) was calculated as the ratio koff/kₒₙ.

[2] = molecular target: T2, human FolR1 ECD-AcTev-Fcknob-Avi tag + Fc hole, biotinylated monomeric Fc fusion (human, UniProt P0DOX5 223-449 = IgG part); assay: SPR ProteOn, Fab analyte;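 also: recombinant antigens immobilized, purified Fab two-fold dilutions injected in parallel channels, 200 s association and 600 s dissociation, buffer-only channel as in-line reference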
T2 construct: also called huFolR1; huFolR1-Fc
Procedure: as §1, §2

[3] = molecular target: T3, cynomolgus FolR1 ECD-AcTev-Fcknob-Avi tag + Fc hole, biotinylated monomeric Fc fusion (cynomolgus, UniProt P0DOX5 223-449 = IgG part); assay: SPR ProteOn, Fab analyte;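 also: recombinant antigens immobilized, purified Fab two-fold dilutions injected in parallel channels, 200 s association and 600 s dissociation, buffer-only channel as in-line reference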
T3 construct: also called cyFolR1; cyno FolR1-Fc
Procedure: as §1, §2

[4] = molecular target: T4, human FolR2 ECD-AcTev-Fcknob-Avi tag + Fc hole, biotinylated monomeric Fc fusion (human, UniProt P0DOX5 223-449 = IgG part); assay: SPR ProteOn, Fab analyte;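 also: recombinant antigens immobilized, purified Fab two-fold dilutions injected in parallel channels, 200 s association and 600 s dissociation, buffer-only channel as in-line reference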
T4 construct: also called huFolR2; FolR2-Fc
Procedure: as §1, §2

[5] = molecular target: T1, human FolR3 ECD-AcTev-Fcknob-Avi tag + …; assay: SPR, IgG single injection
[6] = molecular target: T4, human FolR2 ECD-AcTev-Fcknob-Avi tag + …; assay: SPR, IgG single injection
[7] = molecular target: T5, cynomolgus TIM-3 on isolated cyno CD14+ monocytes (cynomolgus); assay: flow cytometry, cyno CD14+ monocytes cyno2
T5 construct: whole, on cells

human TIM-3 on cells [8] = molecular target: T6, human TIM-3 on cells (human, UniProt Q8TDQ0 22-301); assay: flow cytometry, human CD14+ monocytes donor2
T6 construct: also called CHO-Tim3; rec CHOK1 cells expressing huTIM-3
Source text: (§3) CD14+ Monocytes were isolated from anticoagulated peripheral blood of healthy donors by density gradient centrifugation using Ficoll-Paque (GE Healthcare) (see General Protocols in the User Manuals or visit www.miltenyibiotec.com/protocols) and subsequent positive selection via CD14 MicroBeads. First the CD14+ cells are magnetically labeled with CD14 MicroBeads. Then the cell suspension is loaded onto a MACS® Column which is placed in the magnetic field of a MACS Separator. The magnetically labeled CD14+ cells are retained in the column. The unlabeled cells run through, this cell fraction is depleted of CD14+ cells. After removal of the column from the magnetic field, the magnetically retained CD14+ cells can be eluted as the positively selected cell fraction. After centrifugation at 200×g for 10 min at room temperature the monocytes were harvested and used directly in binding assay or resuspended in freezing medium (10% DMSO, 90% FCS) at 1.0E+07 cells/ml and stored in liquid nitrogen.
(§4) 1×10⁵ CD14+ isolated human monocytes (50 μl/well) were put into 98 well-v bottom MTP in fresh culture medium and incubated with Redimune® NF Liquid for 15 min at RT to block unspecific binding. […] After washing and centrifugation MFI signals of stained cells were analyzed by BD Biosciences FACSCanto flow cytometer.

human TIM-3 on cells [9] = molecular target: T6, human TIM-3 on cells; assay: cell-based or functional assay
human TIM-3 on cells [10] = molecular target: T6, human TIM-3 on cells; assay: flow cytometry, human CD14+ monocytes donor3
Source text: as §3, §4

human TIM-3 on cells [11] = molecular target: T6, human TIM-3 on cells; assay: flow cytometry, human CD14+ monocytes donor1
[12] = molecular target: T5, cynomolgus TIM-3 on isolated cyno CD14+ …; assay: flow cytometry, cyno CD14+ monocytes cyno3
Source text: (§5) CD14+ Monocytes were isolated from cynomolgus monkey anticoagulated peripheral blood (Covance) by density gradient centrifugation using Ficoll-Paque (GE Healthcare) (see General Protocols in the User Manuals or visit www.miltenyibiotec.com/protocols) and subsequent positive selection via NHP CD14 MicroBeads. First the CD14+ cells are magnetically labeled with CD14 MicroBeads. Then the cell suspension is loaded onto a MACS® Column which is placed in the magnetic field of a MACS Separator. The magnetically labeled CD14+ cells are retained in the column. The unlabeled cells run through, this cell fraction is depleted of CD14+ cells. After removal of the column from the magnetic field, the magnetically retained CD14+ cells can be eluted as the positively selected cell fraction. After centrifugation at 200×g for 10 min at room temperature the monocytes were harvested and used directly in binding assay or resuspended in freezing medium (10% DMSO, 90% FCS) at 1.0E+07 cells/ml and stored in liquid nitrogen.
(§6) 1×10⁵ CD14+ isolated cyno monocytes (50 μl/well) were put into 98 well-v bottom MTP in fresh culture medium and incubated with Redimune® NF Liquid for 15 min at RT to block unspecific binding. Than 50 μl/well of Alexa488 labeled anti-TIM3 (10 μg/ml in cell culture medium) were added and incubated for 1 h at 4° C. After washing and centrifugation MFI signals of stained cells were analyzed by BD Biosciences FACSCanto flow cytometer.

[13] = molecular target: T5, cynomolgus TIM-3 on isolated cyno CD14+ …; assay: flow cytometry, cyno CD14+ monocytes cyno1
Source text: as §5, §6

| Binder | binding result [1] | Kd [2] [nM] | Kd [3] [nM] | binding result [4] | further results |
| --- | --- | --- | --- | --- | --- |
| 15A1 Fab (Fab, V domains shown) VH: QVQLVQSGAEVKKPGASVKVSCKASGYTFTSYYMHWVRQAPGQGLEWMGIINPSGGSTSYAQKFQGRVTMTRDTSTSTVYMELSSLRSEDTAVYYCARNYYIGVVTFDYWGQGTLVTVSS VL: QAVVTQEPSLTVSPGGTVTLTCGSSTGAVTTSNYANWVQEKPGQAFRGLIGGTNKRAPGTPARFSGSLLGGKAALTLSGAQPEDEAEYYCALWYSNLWVFGGGTKLTVL | no binding | 30.9 | 17.3 | no binding | – |
| 18D3 Fab (Fab, V domains shown) VH: QVQLVQSGAEVKKPGASVKVSCKASGYTFTSYYMHWVRQAPGQGLEWMGIINPSGGSTSYAQKFQGRVTMTRDTSTSTVYMELSSLRSEDTAVYYCARNYYTGGSSAFDYWGQGTLVTVS VL: QAVVTQEPSLTVSPGGTVTLTCGSSTGAVTTSNYANWVQEKPGQAFRGLIGGTNKRAPGTPARFSGSLLGGKAALTLSGAQPEDEAEYYCALWYSNLWVFGGGTKLTVL | no binding | 93.6 | 40.2 | no binding | – |
| 18D3 IgG (antibody, V domains shown, human IgG1) VH: QVQLVQSGAEVKKPGASVKVSCKASGYTFTSYYMHWVRQAPGQGLEWMGIINPSGGSTSYAQKFQGRVTMTRDTSTSTVYMELSSLRSEDTAVYYCARNYYTGGSSAFDYWGQGTLVTVS VL: QAVVTQEPSLTVSPGGTVTLTCGSSTGAVTTSNYANWVQEKPGQAFRGLIGGTNKRAPGTPARFSGSLLGGKAALTLSGAQPEDEAEYYCALWYSNLWVFGGGTKLTVL | – | – | – | – | binding result [5]: no binding (tested: 500 nM); binding result [6]: no binding (tested: 500 nM) |
| 16A3 Fab (Fab, V domains shown) VH: QVQLVQSGAEVKKPGASVKVSCKASGYTFTSYYMHWVRQAPGQGLEWMGIINPSGGSTSYAQKFQGRVTMTRDTSTSTVYMELSSLRSEDTAVYYCARNYYAGVTPFDYWGQGTLVTVSS VL: QAVVTQEPSLTVSPGGTVTLTCGSSTGAVTTSNYANWVQEKPGQAFRGLIGGTNKRAPGTPARFSGSLLGGKAALTLSGAQPEDEAEYYCALWYSNLWVFGGGTKLTVL | no binding | 21.7 | 18 | no binding | – |
| 19E5 Fab (Fab, V domains shown) VH: QVQLVQSGAEVKKPGASVKVSCKASGYTFTSYYMHWVRQAPGQGLEWMGIINPSGGSTSYAQKFQGRVTMTRDTSTSTVYMELSSLRSEDTAVYYCARGEWRRYTSFDYWGQGTLVTVSS VL: QAVVTQEPSLTVSPGGTVTLTCGSSTGAVTTSNYANWVQEKPGQAFRGLIGGTNKRAPGTPARFSGSLLGGKAALTLSGAQPEDEAEYYCALWYSNLWVFGGGTKLTVL | – | – | 276 | – | – |
| 15H7 Fab (Fab, V domains shown) VH: QVQLVQSGAEVKKPGASVKVSCKASGYTFTSYYMHWVRQAPGQGLEWMGIINPSGGSTSYAQKFQGRVTMTRDTSTSTVYMELSSLRSEDTAVYYCARNYYLFSTSFDYWGQGTLVTVSS VL: QAVVTQEPSLTVSPGGTVTLTCGSSTGAVTTSNYANWVQEKPGQAFRGLIGGTNKRAPGTPARFSGSLLGGKAALTLSGAQPEDEAEYYCALWYSNLWVFGGGTKLTVL | no binding | – | 72.5 | no binding | – |
| 16A3 IgG (antibody, V domains shown, human IgG1) VH: QVQLVQSGAEVKKPGASVKVSCKASGYTFTSYYMHWVRQAPGQGLEWMGIINPSGGSTSYAQKFQGRVTMTRDTSTSTVYMELSSLRSEDTAVYYCARNYYAGVTPFDYWGQGTLVTVSS VL: QAVVTQEPSLTVSPGGTVTLTCGSSTGAVTTSNYANWVQEKPGQAFRGLIGGTNKRAPGTPARFSGSLLGGKAALTLSGAQPEDEAEYYCALWYSNLWVFGGGTKLTVL | – | – | – | – | binding result [5]: no binding (tested: 500 nM); binding result [6]: no binding (tested: 500 nM) |
| 20G6 Fab (Fab, V domains shown) VH: QVQLVQSGAEVKKPGASVKVSCKASGYTFTSYYMHWVRQAPGQGLEWMGIINPSGGSTSYAQKFQGRVTMTRDTSTSTVYMELSSLRSEDTAVYYCARGEWIRYYHFDYWGQGTLVTVSS VL: QAVVTQEPSLTVSPGGTVTLTCGSSTGAVTTSNYANWVQEKPGQAFRGLIGGTNKRAPGTPARFSGSLLGGKAALTLSGAQPEDEAEYYCALWYSNLWVFGGGTKLTVL | no binding | – | – | no binding | binding result [2]: no binding; binding result [3]: no binding |
| 19A4 Fab (Fab, V domains shown) VH: QVQLVQSGAEVKKPGASVKVSCKASGYTFTSYYMHWVRQAPGQGLEWMGIINPSGGSTSYAQKFQGRVTMTRDTSTSTVYMELSSLRSEDTAVYYCARGGWIRWEHFDYWGQGTLVTVSS VL: QAVVTQEPSLTVSPGGTVTLTCGSSTGAVTTSNYANWVQEKPGQAFRGLIGGTNKRAPGTPARFSGSLLGGKAALTLSGAQPEDEAEYYCALWYSNLWVFGGGTKLTVL | – | 2050 | 4250 | – | – |
| 21D1 IgG (antibody, V domains shown, human IgG1) VH: QVQLVQSGAEVKKPGASVKVSCKASGYTFTSYYMHWVRQAPGQGLEWMGIINPSGGSTSYAQKFQGRVTMTRDTSTSTVYMELSSLRSEDTAVYYCARNYYVGVSPFDYWGQGTLVTVSS VL: QAVVTQEPSLTVSPGGTVTLTCGSSTGAVTTSNYANWVQEKPGQAFRGLIGGTNKRAPGTPARFSGSLLGGKAALTLSGAQPEDEAEYYCALWYSNLWVFGGGTKLTVL | – | – | – | – | binding result [5]: no binding (tested: 500 nM); binding result [6]: no binding (tested: 500 nM) |
| 15H7 IgG (antibody, V domains shown, human IgG1) VH: QVQLVQSGAEVKKPGASVKVSCKASGYTFTSYYMHWVRQAPGQGLEWMGIINPSGGSTSYAQKFQGRVTMTRDTSTSTVYMELSSLRSEDTAVYYCARNYYLFSTSFDYWGQGTLVTVSS VL: QAVVTQEPSLTVSPGGTVTLTCGSSTGAVTTSNYANWVQEKPGQAFRGLIGGTNKRAPGTPARFSGSLLGGKAALTLSGAQPEDEAEYYCALWYSNLWVFGGGTKLTVL | – | – | – | – | binding result [5]: no binding (tested: 500 nM); binding result [6]: no binding (tested: 500 nM) |
| 19H3 Fab (Fab, V domains shown) VH: QVQLVQSGAEVKKPGASVKVSCKASGYTFTSYYMHWVRQAPGQGLEWMGIINPSGGSTSYAQKFQGRVTMTRDTSTSTVYMELSSLRSEDTAVYYCARTGWSRWGYMDYWGQGTLVTVSS VL: QAVVTQEPSLTVSPGGTVTLTCGSSTGAVTTSNYANWVQEKPGQAFRGLIGGTNKRAPGTPARFSGSLLGGKAALTLSGAQPEDEAEYYCALWYSNLWVFGGGTKLTVL | no binding | – | – | no binding | binding result [2]: no binding; binding result [3]: no binding |
| 21D1 Fab (Fab, V domains shown) VH: QVQLVQSGAEVKKPGASVKVSCKASGYTFTSYYMHWVRQAPGQGLEWMGIINPSGGSTSYAQKFQGRVTMTRDTSTSTVYMELSSLRSEDTAVYYCARNYYVGVSPFDYWGQGTLVTVSS VL: QAVVTQEPSLTVSPGGTVTLTCGSSTGAVTTSNYANWVQEKPGQAFRGLIGGTNKRAPGTPARFSGSLLGGKAALTLSGAQPEDEAEYYCALWYSNLWVFGGGTKLTVL | no binding | 62.6 | 32.1 | no binding | – |
| Tim3_0038 (antibody, V domains shown) VH: EVQLQQSGAEPLKPGASVKLTCTTSGFNIKDYYIHWVKQRSDQGLEWIGRIDPEDGELIYAPKFQDKATITVDTSSNIAYLQLNSLTSEDTAVYYCSRDHGYVGWFAYWGQGTLVTVSA VL: NVVMTQSPKSMIMSVGQRVTLNCKASENVDTYVSWYQQKPEQSPKLLIYGASNRYTGVPDRFTGSRSATDFTLTISSVQAEDLAVYYCGQSYSYPWTFGGGTKLEFR | – | – | – | – | MFI [7]: 107 MFI; specific binding MFI (human TIM-3 on cells [8]): 1370 MFI; IFN-gamma release in MLR at 1 µg/ml, % of IL-2 control (human TIM-3 on cells [9]): 1%; IFN-gamma release in MLR at 10 µg/ml, % of IL-2 control (human TIM-3 on cells [9]): 38%; IFN-gamma release in MLR at 40 µg/ml, % of IL-2 control (human TIM-3 on cells [9]): 51%; specific binding MFI (human TIM-3 on cells [10]): 1400 MFI; specific binding MFI (human TIM-3 on cells [11]): 1640 MFI; MFI [12]: 120 MFI; MFI [13]: 97 MFI |
